We go through four molecules from article PMC9317006, “A Fiber-Based SPR Aptasensor for the In Vitro Detection of Inflammation Biomarkers”.

Where only a bound is given, the exact number is not on record here.

One data set has as its system hemoglobin. The data set is described as follows: fiber-based SPR. The settings on record: 100 nM protein; 3' thiol; Detection buffer: 25 mM Tris base, 192 mM glycine, 0.05% Tween 20, 0.1% BSA, 2 mM CaCl2, 100 mM NaCl, pH 8.0; binding temperature not stated (RI calibration at …).
For the next data set, the system named is fibrinogen. The experiment in a line: fiber-based SPR. The settings on record: 100 nM protein; 3' thiol; Detection buffer: 25 mM Tris base, 192 mM glycine, 0.05% Tween 20, 0.1% BSA, 2 mM CaCl2, 100 mM NaCl, pH 8.0; binding temperature not stated (RI calibration at …).
The target of data set [1] is cardiac troponin I (cTn-I) (human, UniProt P19429 1-210). The data set is described as follows: fiber-based SPR; LOD 2.5 nM (not a Kd); aptamer loaded at 200 nM; Detection buffer: 25 mM Tris base, 192 mM glycine, 0.05% Tween 20, 0.1% BSA, 2 mM CaCl2, 100 mM NaCl, pH 8.0; binding temperature not stated (RI calibration at). The settings on record: protein: recombinant.
Another data set concerns the target T1, C-reactive protein (CRP) (human, UniProt P02741 19-224).
T1 sequence: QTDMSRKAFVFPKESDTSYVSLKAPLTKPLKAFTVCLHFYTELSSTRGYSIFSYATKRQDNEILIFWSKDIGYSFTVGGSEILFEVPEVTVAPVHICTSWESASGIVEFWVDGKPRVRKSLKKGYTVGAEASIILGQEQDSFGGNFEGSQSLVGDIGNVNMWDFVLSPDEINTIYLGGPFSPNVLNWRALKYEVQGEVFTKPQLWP
The data set is described as follows: fiber-based SPR; LOD 1.7 nM (not a Kd); aptamer loaded at 100 nM; Detection buffer: 25 mM Tris base, 192 mM glycine, 0.05% Tween 20, 0.1% BSA, 2 mM CaCl2, 100 mM NaCl, pH 8.0; binding temperature not stated (RI calibration at). The note with it: protein: recombinant; chain copies: 5.

cardiac troponin I (cTn-I), sequence (P19429 whole entry): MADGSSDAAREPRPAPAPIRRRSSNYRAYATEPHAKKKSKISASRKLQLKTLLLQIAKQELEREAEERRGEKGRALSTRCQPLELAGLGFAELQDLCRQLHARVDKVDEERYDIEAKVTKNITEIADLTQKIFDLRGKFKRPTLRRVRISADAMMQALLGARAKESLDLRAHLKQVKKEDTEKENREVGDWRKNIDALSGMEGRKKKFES

Consider “CGAAGGGGATTCGAGGGGTGATTGCGTGCTCCATTTGGTGTTTTT [cTn-I aptamer]”, for which the binding signal (% of specific response) in the data set with hemoglobin and in the data set on fibrinogen was < 20 in each case.

Take “GGCAGGAAGACAAACACGATGGGGGGGTATGATTTGATGTGGTTGTGCATGATCGTGGTCTGTGGTGCTGTTTTT [CRP aptamer]”: the binding signal (% of specific response) with hemoglobin and in the data set on fibrinogen was < 20 throughout.

B1: cTn-I aptamer (ssDNA)
DNA: CGAAGGGGATTCGAGGGGTGATTGCGTGCTCCATTTGGTGTTTTT
modifications: 3' thiol
With B1, the binding result in data set [1] is on record as “binds”.

B2: CRP aptamer (ssDNA)
DNA: GGCAGGAAGACAAACACGATGGGGGGGTATGATTTGATGTGGTTGTGCATGATCGTGGTCTGTGGTGCTGTTTTT
modifications: 3' thiol
For B2, the binding result with C-reactive protein (CRP) is “binds”.
